Test results from patent US20120301897A1, “ACETAMINOPHEN-PROTEIN ADDUCT ASSAY DEVICE AND METHOD” (BOARD OF TRUSTEES OF THE UNIVERSITY OF ARKANSAS, priority 2008, published 2012).

How the values were obtained:
[1] = human, in vivo
Method: Serum samples were analyzed for acetaminophen-protein adducts (as measured by acetaminophen-cysteine or APAP-CYS) using a high-performance liquid chromatography with electrochemical detection (HPLC-EC) method. All serum samples were dialyzed, treated with protease, and then precipitated with trichloracetic acid.
The severity of liver injury was stratified by the highest recorded value for AST concentration.
The subgroups were based on the severity of toxicity defined as the highest recorded value for AST concentration for each patient over the period of hospitalization.

[2] = under overdose conditions; cited from earlier work

**Q.** For “3-(cystein-S-yl) APAP (3-Cys-A)-protein adducts [APAP-protein adducts]”, which “mean (±SD) half-life of adducts in serum” value [1] is on record?
**A.** Its value is 35.3 ± 7.2 h.

**Q.** Which reported elimination half-life [2] does the source give for `CC(=O)Nc1ccc(O)cc1` [APAP, Acetaminophen] here?
**A.** The reported elimination half-life was “about 18 hours”.
